Data from patent publication US20080233118A1 (Novartis, published 2008).

Biological target: T1, human M-CSF (macrophage colony stimulating factor) (human, UniProt P09603 33-190, limits assumed)
T1 sequence: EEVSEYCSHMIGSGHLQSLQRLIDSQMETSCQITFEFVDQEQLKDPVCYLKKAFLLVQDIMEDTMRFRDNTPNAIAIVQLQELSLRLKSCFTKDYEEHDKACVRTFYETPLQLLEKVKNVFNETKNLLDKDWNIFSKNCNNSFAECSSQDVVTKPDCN
Assay: cell-based or functional assay

B1: M-CSF-specific murine antibody RX1 (antibody, V domains shown)
VH: DVQLQESGPGLVKPSQSLSLTCTVTDYSITSDYAWNWIRQFPGNKLEWMGYISYSGSTSYNPSLKSRISITRDTSKNQFFLQLNSVTTEDTATYYCASFDYAHAMDYWGQGTSVTVSS
VL: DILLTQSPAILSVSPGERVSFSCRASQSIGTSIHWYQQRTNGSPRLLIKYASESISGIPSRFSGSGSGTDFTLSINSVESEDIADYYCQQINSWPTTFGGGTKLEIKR
EC50 of M-CSF neutralization: 2 ng/mL
